Measurements published in PMC7176292.

Columns and labels:
[1] = molecular target: human μ-opioid receptor (μOR) M153F, with HA signal sequence at the N terminus and LgBiT at the C terminus (modified pfastbac1) (human) (UniProt P35372); test: split reporter (BiFC, NanoBiT); NanoBiT on Sf9 membranes co-expressing μOR-LgBiT, Gαi1, Gβ1-SmBiT and Gγ2, in PBS pH 7.4; dose-response of DAMGO, 15 min at room temperature, luminescence; normalized to DAMGO
[2] = molecular target: human μ-opioid receptor (μOR) M153I, with HA signal sequence at the N terminus and LgBiT at the C terminus (modified pfastbac1) (human) (UniProt P35372); test: as above
[3] = molecular target: human μ-opioid receptor (μOR) M153L, with HA signal sequence at the N terminus and LgBiT at the C terminus (modified pfastbac1) (human) (UniProt P35372); test: as above
[4] = molecular target: human μ-opioid receptor (μOR) M153A, with HA signal sequence at the N terminus and LgBiT at the C terminus (modified pfastbac1) (human) (UniProt P35372); test: split reporter (BiFC, NanoBiT); NanoBiT on Sf9 membranes co-expressing μOR-LgBiT, Gαi1, Gβ1-SmBiT and Gγ2, in PBS pH 7.4; dose-response of fentanyl, 15 min at room temperature, luminescence; normalized to DAMGO
[5] = molecular target: human μ-opioid receptor (μOR) M153F, with HA signal sequence at the N terminus and LgBiT at the C terminus (modified pfastbac1) (human) (UniProt P35372); test: as above
[6] = molecular target: human μ-opioid receptor (μOR) M153I, with HA signal sequence at the N terminus and LgBiT at the C terminus (modified pfastbac1) (human) (UniProt P35372); test: as above
[7] = molecular target: human μ-opioid receptor (μOR) M153L, with HA signal sequence at the N terminus and LgBiT at the C terminus (modified pfastbac1) (human) (UniProt P35372); test: as above
[8] = molecular target: human μ-opioid receptor (μOR) M153V, with HA signal sequence at the N terminus and LgBiT at the C terminus (modified pfastbac1) (human) (UniProt P35372); test: as above

Sequence of Gi protein complex (Gαi1, Gβ1 with SmBiT at the C terminus, Gγ2) (P63096 whole entry): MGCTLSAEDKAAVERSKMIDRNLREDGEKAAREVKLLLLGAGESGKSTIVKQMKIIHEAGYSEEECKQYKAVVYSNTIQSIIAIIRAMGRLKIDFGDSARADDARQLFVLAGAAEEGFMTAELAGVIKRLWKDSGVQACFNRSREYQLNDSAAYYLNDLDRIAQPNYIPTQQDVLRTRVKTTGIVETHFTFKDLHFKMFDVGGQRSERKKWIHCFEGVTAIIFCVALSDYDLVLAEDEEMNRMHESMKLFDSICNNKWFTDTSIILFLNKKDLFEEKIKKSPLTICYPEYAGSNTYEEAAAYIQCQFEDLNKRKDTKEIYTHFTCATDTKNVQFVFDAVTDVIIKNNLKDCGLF
Sequence of Gi protein complex (Gαi1, Gβ1 with SmBiT at the C terminus, Gγ2) (P62873 whole entry): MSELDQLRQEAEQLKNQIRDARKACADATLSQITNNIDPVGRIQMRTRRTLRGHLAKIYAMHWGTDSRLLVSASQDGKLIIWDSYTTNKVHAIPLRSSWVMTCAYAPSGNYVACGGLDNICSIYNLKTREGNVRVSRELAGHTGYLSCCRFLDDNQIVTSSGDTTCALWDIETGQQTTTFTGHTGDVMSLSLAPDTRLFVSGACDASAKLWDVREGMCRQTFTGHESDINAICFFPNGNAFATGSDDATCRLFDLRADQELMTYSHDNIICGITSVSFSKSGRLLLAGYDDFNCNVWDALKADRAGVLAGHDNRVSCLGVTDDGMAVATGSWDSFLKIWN
Sequence of Gi protein complex (Gαi1, Gβ1 with SmBiT at the C terminus, Gγ2) (P59768 whole entry): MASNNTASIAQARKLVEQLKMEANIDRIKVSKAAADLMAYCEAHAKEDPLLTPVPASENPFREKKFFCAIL

Substance: Gi protein complex (Gαi1, Gβ1 with SmBiT at the C terminus, Gγ2) (from UniProt P63096 1-354; P62873 1-340; P59768 1-71)
- maximal Gi coupling (normalized to DAMGO) [1]: 100%
- maximal Gi coupling (normalized to DAMGO) [2]: 100%
- maximal Gi coupling (normalized to DAMGO) [3]: 100%
- maximal Gi coupling (normalized to DAMGO) [4]: < 55%
- maximal Gi coupling (normalized to DAMGO) [5]: < 55%
- maximal Gi coupling (normalized to DAMGO) [6]: < 55%
- maximal Gi coupling (normalized to DAMGO) [7]: < 55%
- maximal Gi coupling (normalized to DAMGO) [8]: < 55%
